B1: agouti protein: Recombinant murine agouti signal protein purified from a baculovirus expression system (protein)
chain: MDVTRLLLATLVSFLCFFTVHSHLALEETLGDDRSLRSDSSMNSLDFSSVSIVALNKKSKKISRKEAEKRKRSSKKKASMKKVARPPPPSPCVATRDSCKPPAPACCDPCASCQCRFFGSACTCRVLNPNC

Columns and labels:
tyrosinase [1] = assay: Tyrosine hydroxylase enzyme assay on extracts of treated melan-a cells; assay type: cell-based, murine; details: extracts of melan-a cells cultured 5 days; 10 nM
Protocol: (§1) Assays for melanogenic catalytic activities as described below were carried out at pH 6.8, 37° C. for 60 minutes. (1) Tyrosine hydroxylase activity was measured using the [^3H]tyrosine assay (Hearing and Ekel, 1976; Hearing, 1987). This method specifically measures the tritiated water produced during the hydroxylation of tyrosine to DOPA. (2) DOPA oxidase activity was measured using incorporation of [3-^14C]DOPA into acid-insoluble melanin as detailed previously (Aroca et al., 1993). (3) DOPAchrome tautomerase activity was measured by HPLC as the disappearance of DOPAchrome substrate and the production of DHICA rather than DHI; data are converted to pmol products by comparison with known standards. The HPLC assay was detailed previously (Palumbo et al., 1987; Tsukamoto et al., 1992). (4) DHI oxidase and DHICA oxidase activities were measured by HPLC as the disappearance of these substrates from reaction mixtures compared to controls for spontaneous auto-oxidation; data are converted to pmol by comparison with known standard (Aroca et al., 1993). (5) Melanin production was measured using incorporation of [^14C]tyrosine into acid-insoluble melanin, also as detailed previously (Hearing and Ekel, 1976; Hearing, 1987); pmol melanin produced are calculated from the radioactive product. […]

tyrosinase [2] = assay: DOPA oxidase enzyme assay on extracts of treated melan-a cells; assay type: cell-based, murine; details: extracts of melan-a cells cultured 5 days; 10 nM
Protocol: as §1

TRP2 = assay: DOPAchrome tautomerase enzyme assay on extracts of treated melan-a cells; assay type: cell-based, murine; details: extracts of melan-a cells cultured 5 days; 10 nM
Protocol: as §1

melan-a cells [3] = assay: Melanin production assay on extracts of treated melan-a cells; assay type: cell-based, murine; details: extracts of melan-a cells cultured 5 days; 10 nM
Protocol: as §1

melan-a cells [4] = assay: Pigmentation and ultrastructure of melan-a cells; assay type: cell-based, murine
Protocol: Cells were harvested, centrifuged for 5 minutes at 14,000 g at 4° C., and fixed for 2 hours at 23° C. in 2% glutaraldehyde-2% paraformaldehyde in 0.1 M sodium cacodylate buffer, pH 7.3; the fixative was then removed and the samples were stored in phosphate-buffered saline containing 2% sucrose at 4° C. Samples were subsequently processed with graded alcohols and embedded in epoxy resin for electron microscopy in the usual manner. Thin sections were stained with uranyl acetate and lead citrate, viewed and photographed with a Zeiss EM10 electron microscope, as previously detailed (Prota et al., 1995).

tyrosinase [5] = assay: Northern blotting of tyrosinase RNA in B16F10 melanoma cells; assay type: cell-based; details: B16F10 murine melanoma cells, 10 nM, 5 days
Protocol: (§2) The melan-a melanocyte cell line was used as described in Example 1. This clonal line was derived from C57B1 nonagouti black mice. The growth medium was minimum essential medium containing 200 nM TPA. B16F10 melanoma cells were also used to compare the effect of agouti protein with melan-a. These cells were grown in Dulbecco's modified Eagle medium.
(§3) Recombinant agouti protein was purified from baculovirus system by Dr. Michael Ollmann in Dr. Gregory Barsh's laboratory by methods known in the art. 2×10^6 cells were seeded per 15 cm diameter dish. The medium was changed everyday, and fresh agouti protein and/or αMSH added everyday usually at 10 nM. To examine transcriptional regulation, total RNA was isolated and Northern blotting performed by methods described in Example 1. The A26 probe to the MSH-R was provided by Dr. R. Cone and is described in Mountjoy et al. Science 257:1248-1251, 1992. At the translational level, metabolic labeling was used in conjunction with immunoprecipitation as described in Example 1. Western blotting and enzyme assay was used to examine function.
(§4) The effect of agouti protein and MSH observed for melan-a cells was confirmed using B16F10 murine melanoma cells. Similar effects were observed (FIG. 13).

MSH receptor = assay: Northern blotting of MSH receptor RNA in B16F10 melanoma cells; assay type: cell-based; details: B16F10 murine melanoma cells, 10 nM, 5 days
Protocol: as §2, §3, §4

MC1-R = assay: Inhibition of activation of the MC1-R; assay type: biochemical; details: preparation ≧90% pure
From the text: (§5) Recombinant mouse ASP was generated and purified using a baculovirus expression system as described in Ollmann et al. (in preparation). […] The experiment described in FIG. 2 has also been repeated with an ASP preparation ≧99% pure with virtually identical results.

[6] = Retention of activity at 37° in water or tissue culture media; assay type: physicochemical
From the text: as §5

[7] = tested on: melan-a murine melanocytes; assay: Chemical analysis of eumelanin and pheomelanin contents of melan-a melanocytes; assay type: cell-based; details: black melan-a murine melanocytes in vitro
Protocol: Chemical degradation and analysis of eumelanin and pheomelanin contents were performed and quantitated as previously reported (Ito and Fujita, 1985).

| Molecule | tyrosine hydroxylase (tyrosinase [1]) [pmol/μg protein/hr] | DOPA oxidase (tyrosinase [2]) [pmol/μg protein/hr] | DOPA chome tautomerase (TRP2) [pmol/μg protein/hr] | melanin production (melan-a cells [3]) [pmol/μg protein/hr] | pigmentation of the cells (melan-a cells [4]; black melan-a murine melanocytes in vitro) | amount of melanosomes (ultrastructural study) (melan-a cells [4]; melan-a cells, 10 nM, 5 days) | melanosome structure (ultrastructural study) (melan-a cells [4]; melan-a cells, 10 nM, 5 days) | color of cell pellet (melan-a cells [4]; melan-a cells, 10 nM, 5 days incubation) | tyrosinase RNA (tyrosinase [5]) | MSH receptor expression (MSH receptor) | Ki (MC1-R) [nM] | time for which activity is retained [6] | eumelanin production [7] | synthesis of pheomelanin [7] |
| --- | --- | --- | --- | --- | --- | --- | --- | --- | --- | --- | --- | --- | --- | --- |
| α-melanocyte stimulating hormone [MSH, reference compound] | 8.7 ± 2.8 | 197.5 ± 17.4 | 555.0 | 6.3 ± 0.5 |  |  |  |  |  |  |  |  |  |  |
| B1 | −1.2 ± 0.2 | −2.6 ± 3.4 | 0.0 | 0.22 ± 0.0 | markedly inhibited | decreased | pheomelanosome-like structures were found | changed from black to light brown | did not reduce tyrosinase RNA below baseline | elevated | 0.22 | more than 48 hours | significantly decreased | increased |

From patent publication US6579848B1, “Depigmenting activity of agouti signal protein and peptides thereof” (The United States of America as represented by the …, priority 1995, dated 2003)
